Measurements reported in US20210253725A1 (BIONTECH, published 2021).
Positions count from the first letter of the chain named. Names and notes keep the numbering of the source. One block for each binder: values may come before it.

Assays:
[1] = target: T1, CD27 protein (His-tagged, Sino Biological Inc. 10039-H08B1) (human, UniProt P26842 20-192); assay: ELISA on coated His-tagged CD27
T1 construct: bought; coated onto ELISA plates; also called human CD27; recombinant protein; not shown: His tag
T1 sequence (looked up): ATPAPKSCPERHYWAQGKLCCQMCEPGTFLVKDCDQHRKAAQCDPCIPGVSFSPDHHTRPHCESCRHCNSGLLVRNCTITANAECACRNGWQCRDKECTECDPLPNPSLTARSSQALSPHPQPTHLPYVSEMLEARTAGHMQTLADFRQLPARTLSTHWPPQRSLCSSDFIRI

[2] = target: T2, CD27 expressed on the cell surface (HT1080_CD27 cells) (human, UniProt P26842 20-260); assay: cellular binding assay, HT1080_CD27 cells
T2 construct: whole, on cells; also called K562_CD27
T2 sequence (looked up): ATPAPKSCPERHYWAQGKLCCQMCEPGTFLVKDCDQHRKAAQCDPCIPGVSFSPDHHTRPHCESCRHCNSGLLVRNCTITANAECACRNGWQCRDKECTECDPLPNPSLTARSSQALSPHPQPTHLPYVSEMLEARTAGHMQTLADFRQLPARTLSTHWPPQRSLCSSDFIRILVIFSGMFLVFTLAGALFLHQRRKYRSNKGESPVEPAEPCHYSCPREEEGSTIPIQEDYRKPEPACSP

[3] = target: T2, CD27 expressed on the cell surface …; assay: cell-based or functional assay
[4] = target: T3, CD134 expressed on the cell surface of HT1080_OX40 cells (human, UniProt P43489 29-277); assay: cell-based or functional assay
T3 sequence (looked up): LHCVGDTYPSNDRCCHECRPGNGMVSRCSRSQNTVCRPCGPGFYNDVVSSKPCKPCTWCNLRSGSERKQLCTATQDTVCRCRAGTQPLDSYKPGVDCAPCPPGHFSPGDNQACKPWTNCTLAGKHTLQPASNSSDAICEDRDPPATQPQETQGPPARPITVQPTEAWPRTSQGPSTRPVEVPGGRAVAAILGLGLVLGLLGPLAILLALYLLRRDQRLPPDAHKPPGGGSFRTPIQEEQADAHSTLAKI

[5] = target: T4, CD134 protein (His-tagged, Sino Biological Inc. 10481-H08H) (human, UniProt P43489 29-216); assay: ELISA, coated His-tagged CD134
T4 construct: bought protein coated on ELISA plates; also called OX40; TNFRSF4; not shown: His tag
T4 sequence (looked up): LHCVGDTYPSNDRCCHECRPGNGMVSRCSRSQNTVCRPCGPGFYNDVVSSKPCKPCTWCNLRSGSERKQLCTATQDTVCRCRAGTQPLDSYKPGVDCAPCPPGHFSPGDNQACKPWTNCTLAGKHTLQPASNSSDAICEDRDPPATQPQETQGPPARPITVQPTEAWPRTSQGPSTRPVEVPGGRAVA

[6] = target: T3, CD134 expressed on the cell surface of …; assay: HT1080_OX40 cells, imaging
Further: test concentration or dose not given here.

B1: P018.S.10.A.G05 (antibody, V domains shown)
VH: QSVEESGGRLVTPGTPLTLTCTVSGFSLNNAHMCWVRQAPGKGLEWIGIIGASGSTYYASWAKGRFTISKTSTTVDLKMTSLTTEDTATYFCGRTDVGYTTANLWGQGTLVTVSS
VL: DVVMTQTPASVSAAVGGTVTIKCQASQTISSYLSWYQQKPGQPPKRLIYSASTLASGVSSRFKGSGSGTQFTLTISDLESADAATYYCQAYDTTSGTDLWAFGGGTEVVVK
notes: V regions on human Ig constant parts; also called AB27_183
ELISA [abs. corr.] [1]: 3.42 abs. corr.
Cellular binding assay [RFU] [2]: 408 RFU
IL-8, cross-linked by F(ab')2 fragment [abs. corr.] [3]: 1.25 abs. corr.
IL-8 [abs. corr.] [3]: 0.137 abs. corr.

B5: P018.S.12.A.G04 (antibody, V domains shown)
VH: QSVEESGGRLVTPGTPLTLTCTVSGFSLNSYDMSWVRQAPGKGLEWIGFISAIDNTYYASWAKGRFTISKTSTTVDLKITSPTTEDTATYFCASDSYGWAYVYYFNLWGPGTLVTVSS
VL: AVVLTQTPASVSATVGGTVTINCRASEDIGSYLGWYQQKPGQPPKLLIHDASDLASGVPSRFSGSGSGTEFTLTISGVQSDDAATYYCQSAWYSSDSDKMAFGGGTEVVVK
notes: V regions on human Ig constant parts; also called AB134_86
Functional assay Cross-linked by F(ab′)2 fragment IL-8 [4]: 1.99 abs. corr.
Functional assay IL-8 [4]: 0.407 abs. corr.
ELISA [abs. corr.] [5]: 2.08 abs. corr.
Cellular binding assay [RFU] [6]: 534 RFU

B7: P018.S.03.A.G06 (antibody, V domains shown)
VH: QSLEESGGDLVKPGASLTLTCTASGFSFSRNNYMCWVRQAPGKGLESIACIHDGNSVGIYYTTWAKGRFTISKTSSTTVTLQMTSLTVADTATYFCARMSYTNDWDPIWGPGTLVTVSS
VL: DIVMTQTPASVEAAVGGTVTIDCQASENIYSLLAWYQQKPGQPPKVLISLASNLASGVPSRFKGSGSGTQFSLTISDLESADAATYYCQGYYYSSSTSYENAFGGGTEVVVS
notes: V regions on human Ig constant parts; also called AB27_59
ELISA [abs. corr.] [1]: 3.4 abs. corr.
Cellular binding assay [RFU] [2]: 302 RFU
IL-8, cross-linked by F(ab')2 fragment [abs. corr.] [3]: 1.36 abs. corr.
IL-8 [abs. corr.] [3]: 0.56 abs. corr.

Second part, the binder after the results:

ELISA [abs. corr.] [1]: 3.41 abs. corr.
Cellular binding assay [RFU] [2]: 332 RFU
IL-8, cross-linked by F(ab')2 fragment [abs. corr.] [3]: 1.52 abs. corr.
IL-8 [abs. corr.] [3]: 0.127 abs. corr.
B2: P018.S.02.A.G01 (antibody, V domains shown)
VH: QSLEESGGRLVTPGTPLTLTCTVSGIDLSSNAMNWVRQAPGKGLEWIGIIYTSGSTYYASWVKGRFTISRTSTTVDLEMTSLTTEDTATYFCARGVTIDWFDLWGQGTLVTVSS
VL: AAVLTQTPSSVSAAVGGTVTINCQSSPSVYSNYLSWFQQKPGQPPKLLIYGASTLTSGVPSRFKGSGSGTQFTLTINDVQSDDAATYWCLGGYGDINDTTFGGGTEVVVK
notes: V regions on human Ig constant parts; also called AB27_37

ELISA [abs. corr.] [1]: 3.42 abs. corr.
Cellular binding assay [RFU] [2]: 326 RFU
IL-8, cross-linked by F(ab')2 fragment [abs. corr.] [3]: 2.05 abs. corr.
IL-8 [abs. corr.] [3]: 0.495 abs. corr.
B3: P018.S.01.A.F02 (antibody, V domains shown)
VH: QQQLVESGGGLVRPGASLTLTCKASGFSFSSGYYVCWVRQAPGKGLEWIACIFAGSGGGAGYATWAKGRFTISKTSSTTVTLQMTSLTAADTATYFCARPLSGYAYGMDLWGPGTLVTVSL
VL: DVVMTQTPASVSEPVEGTVTIKCQASQTISNYLAWYQQKPGQPPKLLIYGASTLESGVSSRFKGSGSGTQFTLTIYDLESADAATYYCQCTYDGSSDVGGAFGGGTEVVVK
notes: V regions on human Ig constant parts; also called AB27_19

Functional assay Cross-linked by F(ab′)2 fragment IL-8 [4]: 2.04 abs. corr.
Functional assay IL-8 [4]: 0.38 abs. corr.
ELISA [abs. corr.] [5]: 2.07 abs. corr.
Cellular binding assay [RFU] [6]: 530 RFU
B4: P018.S.11.A.D04 (antibody, V domains shown)
VH: B5 VH with I53S, D54G, N55S, T56I, Y58F
VL: B5 VL with A13P, T14A, I48M, D96N, S97T
notes: V regions on human Ig constant parts; also called AB134_31

Functional assay Cross-linked by F(ab′)2 fragment IL-8 [4]: 2.06 abs. corr.
Functional assay IL-8 [4]: 0.27 abs. corr.
ELISA [abs. corr.] [5]: 1.07 abs. corr.
Cellular binding assay [RFU] [6]: 357 RFU
B6: P018.S.11.A.G02 (antibody, V domains shown)
VH: QSVEESGGRLVTPGTPLTLTCTVSGFSLSGYDMSWVRQAPGKGLEWIGYIYGGNTYYANWAKGRFTISKTSTTVDLKMTSPTTEDTATYFCTRVGAGYSGVWAYFNLWGPGTLVTVSS
VL: AQVLTQTPSSVSAAVGGTVTINCQSSQSVDSDNYLAWYQQKPGQPPKLLIYDTSKLASGVPSRFTGSGSGTQFTLTISGVQSDDAATYYCQGTYYNAGWYFAFGGGTEVVVK
notes: V regions on human Ig constant parts; also called AB134_42
